Data on 8 molecules can be found in paper doi:10.1101/476960.

Read-outs that look alike come from different tables or passages of the source. Some results are limits rather than exact numbers.

Data set [1] concerns the target T1, Ago2 (Homo sapiens, UniProt Q9UKV8 1-859). The data set can be described thus: filter binding.
The target of data set [2] is T1, Ago2. In words: filter binding. This is another data set of the same source.
The target of data set [3] is T1, Ago2. In words: filter binding. This is another data set of the same source.
Data set [4] has as its target Ago2 D669A (Homo sapiens, UniProt Q9UKV8 1-859, D669A). In words: X-ray crystallography.

T1 sequence (Q9UKV8 whole entry): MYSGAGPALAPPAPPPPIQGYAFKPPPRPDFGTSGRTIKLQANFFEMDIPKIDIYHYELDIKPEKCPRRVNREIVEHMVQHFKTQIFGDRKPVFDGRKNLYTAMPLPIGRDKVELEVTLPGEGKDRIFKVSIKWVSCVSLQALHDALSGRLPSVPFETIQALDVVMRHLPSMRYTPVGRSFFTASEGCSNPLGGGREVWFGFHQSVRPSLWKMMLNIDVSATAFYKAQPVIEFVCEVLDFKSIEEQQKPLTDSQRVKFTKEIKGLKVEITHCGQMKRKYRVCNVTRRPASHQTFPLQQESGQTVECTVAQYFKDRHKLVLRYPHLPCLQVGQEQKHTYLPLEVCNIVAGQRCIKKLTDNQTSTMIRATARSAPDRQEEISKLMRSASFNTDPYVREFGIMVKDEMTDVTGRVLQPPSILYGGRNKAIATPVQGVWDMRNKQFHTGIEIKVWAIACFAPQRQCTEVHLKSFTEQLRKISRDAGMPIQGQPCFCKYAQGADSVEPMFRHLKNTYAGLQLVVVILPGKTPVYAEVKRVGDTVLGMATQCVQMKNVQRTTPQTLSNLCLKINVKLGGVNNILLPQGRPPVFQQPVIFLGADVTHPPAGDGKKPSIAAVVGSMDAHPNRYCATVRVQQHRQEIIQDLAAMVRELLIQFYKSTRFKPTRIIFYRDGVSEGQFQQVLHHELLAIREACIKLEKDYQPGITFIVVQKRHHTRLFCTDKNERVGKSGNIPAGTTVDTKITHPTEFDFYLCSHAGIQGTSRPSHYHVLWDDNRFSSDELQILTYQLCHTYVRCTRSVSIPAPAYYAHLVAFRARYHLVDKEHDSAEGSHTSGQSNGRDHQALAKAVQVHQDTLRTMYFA
Sequence of Ago2 D669A (Q9UKV8 whole entry D669A): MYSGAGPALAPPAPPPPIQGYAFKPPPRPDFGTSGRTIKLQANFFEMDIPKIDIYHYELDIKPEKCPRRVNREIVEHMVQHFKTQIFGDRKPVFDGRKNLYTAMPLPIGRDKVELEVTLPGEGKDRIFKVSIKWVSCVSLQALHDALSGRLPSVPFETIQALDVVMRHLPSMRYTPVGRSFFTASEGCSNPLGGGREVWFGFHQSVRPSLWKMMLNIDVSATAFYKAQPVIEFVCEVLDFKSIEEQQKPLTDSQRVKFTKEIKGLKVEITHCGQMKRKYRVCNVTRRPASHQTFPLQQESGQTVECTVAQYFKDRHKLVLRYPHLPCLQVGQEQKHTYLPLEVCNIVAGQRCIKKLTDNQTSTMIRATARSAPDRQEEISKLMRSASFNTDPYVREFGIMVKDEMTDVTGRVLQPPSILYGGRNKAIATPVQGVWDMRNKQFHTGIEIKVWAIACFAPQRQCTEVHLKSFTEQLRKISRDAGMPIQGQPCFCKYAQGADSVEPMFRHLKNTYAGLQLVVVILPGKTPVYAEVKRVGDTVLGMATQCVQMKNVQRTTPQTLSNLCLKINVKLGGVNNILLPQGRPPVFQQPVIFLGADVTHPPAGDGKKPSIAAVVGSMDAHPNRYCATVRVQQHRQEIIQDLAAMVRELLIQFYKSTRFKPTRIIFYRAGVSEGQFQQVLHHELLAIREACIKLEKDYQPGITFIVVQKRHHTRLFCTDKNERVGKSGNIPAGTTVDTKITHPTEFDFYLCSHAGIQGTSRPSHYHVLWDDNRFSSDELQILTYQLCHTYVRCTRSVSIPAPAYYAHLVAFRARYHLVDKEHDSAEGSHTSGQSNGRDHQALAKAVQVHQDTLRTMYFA

B1: weak-sup miR-122 / 4 nt bridge (mixed)
RNA 1: UGGAGUGUGACACUAUCGAAAG
RNA 2: AUAGAAAAACACUCCUAA
modifications: 5' phosphate on guide
As for B1, the binding signal in data set [1] was > 10 fold affinity vs seed-only N2.

B2: strong-sup miR-122 / 2 nt bridge (mixed)
RNA 1: UGGAGUGUGACAGCGGCGAAAG
RNA 2: CCGCAAACACUCCUAA
modifications: 5' phosphate on guide
In the case of B2, the binding signal in data set [2] was > 20 fold affinity vs seed-only N7.

B3: EV2 guide / g13-g14 target (mixed)
RNA 1: UGGAGUGUGACACCGGCGAAAG
RNA 2: GGCAAAACACUCCUAA
modifications: 5' phosphate on guide
Consider B3, for which, in data set [3], the binding signal is > 3.5 fold affinity vs seed-only N13.

B4: weak-sup miR-122 / 10 nt bridge (mixed)
RNA 1: UGGAGUGUGACACUAUCGAAAG
RNA 2: AUAGAAAAAAAAAAACACUCCUAA
modifications: 5' phosphate on guide
For B4, in data set [1], the binding signal is 1.9 fold affinity vs seed-only N2.

B5: strong-sup miR-122 / 15 nt bridge (mixed)
RNA 1: UGGAGUGUGACAGCGGCGAAAG
RNA 2: CCGCAAAAAAAAAAAAAAAACACUCCUAA
modifications: 5' phosphate on guide
For the molecule B5, the binding signal in data set [2] is > 10 fold affinity vs seed-only N7.

B6: miR-122 21mer / 2-16 perfect target (mixed)
RNA 1: UGGAGUGUGACAAUGGUGUUU
RNA 2: CCAUUGUCACACUCCAAA
modifications: 5' phosphate on guide
Turning to B6, in data set [4], the binding result is “binds”.

B7: strong-sup miR-122 / 4 nt bridge (mixed)
RNA 1: UGGAGUGUGACAGCGGCGAAAG
RNA 2: CCGCAAAAACACUCCUAA
modifications: 5' phosphate on guide
For the molecule B7, the binding signal in data set [2] is > 20 fold affinity vs seed-only N7.

B8: strong-sup miR-122 / 1 nt bridge (mixed)
RNA 1: UGGAGUGUGACAGCGGCGAAAG
RNA 2: CCGCAACACUCCUAA
modifications: 5' phosphate on guide
On to B8, for which, in data set [2], the binding signal is > 10 fold affinity vs seed-only N7.
